The values below come from US20080207488A1, “Method for Detecting Peptides Comprising a Cross-B Structure” (priority 2005, published 2008).

Data set [1] concerns the target T1, tPA (Homo sapiens, UniProt P00750).
T1 construct: purchased Boehringer-Ingelheim (Actilyse, Alteplase)
Description: Plasminogen-activation assay (tPA-mediated Plg to Pls, S-2251). It counts as biochemical. Conditions: 100 μg ml^−1 protein. On the procedure:
Plasmin (Pls) activity was assayed as described^7. Peptides and proteins that were tested for their stimulatory ability were regularly used at 100 μg ml^−1. […] Chromogenic substrate S-2251 (Chromogenix, Instrumentation Laboratory SpA, Milano, Italy) was used to measure Pls activity. Conversion of zymogen factor XII (#233490, Calbiochem, EMD Biosciences, Inc., San Diego, Calif.) to proteolytically active factor XII (factor XIIa) was assayed by measurement of the conversion of chromogenic substrate Chromozym-PK (Roche Diagnostics, Almere, The Netherlands) by kallikrein. Chromozym-PK was used at a concentration of 0.3 mM. Factor XII, human plasma prekallikrein (#529583, Calbiochem) and human plasma cofactor high-molecular weight kininogen (#422686, Calbiochem) were used at concentrations of 1 μg ml^−1. […] Assays were performed using microtiter plates (Costar, Cambridge, Mass., USA). Peptides and proteins were tested for their ability to activate factor XII. […] The conversion of Chromozym-PK was recorded kinetically at 37° C. for at least 60 minutes. […] With S-2222, activation of factor XII in plasma was measured, using 60% v/v plasma, diluted with substrate and H2O with or without potential cofactor. Furthermore, auto-activation of factor XII was measured by incubating 53 μg ml^−1 purified factor XII in 50 mM Tris-HCl buffer pH 7.5 with 1 mM EDTA and 0.001% v/v Triton-X100, with S-2222 and H2O with or without potential cofactor.
Formulated protein therapeutics were obtained from the local hospital pharmacy and were used as supplied by the manufacturers. […] Enhancement in fluorescence of ThT and Congo red was measured with all formulated protein therapeutics. […]
To prepare structurally altered ovalbumin (OVA) with amyloid cross-β structure conformation, purified OVA (Sigma, A-7641, lot 071k7094) was heated to 85° C. […] Native OVA (nOVA) and heat-denatured OVA (dOVA) were tested in the ThT fluorescence assay and in the Plg-activation assay. In the fluorescence assay and in the Plg-activation assay, 25 and 100 μg ml^−1 nOVA and dOVA were tested, respectively. […]

Data set [2] is described as follows: ThT fluorescence of LPS-protein mixtures. Conditions: 1 mg ml^−1 protein exposed to 600 μg ml^−1 LPS (FIG. 4C). It counts as physicochemical. On the procedure: (§1) Fluorescence of ThT-protein/peptide adducts was measured as follows. […] Fluorescence was measured at 485 nm upon excitation at 435 nm. Background signals from buffer, buffer with ThT and protein/peptide solution without ThT were subtracted from corresponding measurements with protein solution incubated with ThT. […] Fluorescence was measured in triplicate on a Hitachi F-4500 fluorescence spectrophotometer (Ltd., Tokyo, Japan).
Subsequently, the ability to enhance ThT fluorescence was determined with 40× diluted solution, as described above. […]

Data set [3] is described as follows: ThT fluorescence of CpG-ODN-protein mixtures. It counts as physicochemical. Conditions: 1 mg ml^−1 protein exposed to 21.4 μg ml^−1 CPG-ODN (FIG. 4F). On the procedure:
as §1
Enhancement of ThT fluorescence was measured similarly as described above. […]

Data set [4] has as its target T1, tPA. Description: ELISA, binding of β2GPI to immobilized tPA. Here is the method: (§2) Binding of purified human factor XII from plasma (Calbiochem) or of purified recombinant human tPA to β2GPI purified from human plasma, or to recombinant human β2GPI was tested in an ELISA. Ten μg of factor XII or tPA in PBS was coated onto wells of a Costar 2595 ELISA plate (Cambridge, USA) and incubated with concentration series of the two β2GPI preparations. Binding of β2GPI was assessed with monoclonal antibody 2B2^13.

The target of data set [5] is T2, factor XII (Homo sapiens, UniProt P00748).
T2 construct: purchased Calbiochem, EMD Biosciences #233490
T2 sequence (P00748 20-615): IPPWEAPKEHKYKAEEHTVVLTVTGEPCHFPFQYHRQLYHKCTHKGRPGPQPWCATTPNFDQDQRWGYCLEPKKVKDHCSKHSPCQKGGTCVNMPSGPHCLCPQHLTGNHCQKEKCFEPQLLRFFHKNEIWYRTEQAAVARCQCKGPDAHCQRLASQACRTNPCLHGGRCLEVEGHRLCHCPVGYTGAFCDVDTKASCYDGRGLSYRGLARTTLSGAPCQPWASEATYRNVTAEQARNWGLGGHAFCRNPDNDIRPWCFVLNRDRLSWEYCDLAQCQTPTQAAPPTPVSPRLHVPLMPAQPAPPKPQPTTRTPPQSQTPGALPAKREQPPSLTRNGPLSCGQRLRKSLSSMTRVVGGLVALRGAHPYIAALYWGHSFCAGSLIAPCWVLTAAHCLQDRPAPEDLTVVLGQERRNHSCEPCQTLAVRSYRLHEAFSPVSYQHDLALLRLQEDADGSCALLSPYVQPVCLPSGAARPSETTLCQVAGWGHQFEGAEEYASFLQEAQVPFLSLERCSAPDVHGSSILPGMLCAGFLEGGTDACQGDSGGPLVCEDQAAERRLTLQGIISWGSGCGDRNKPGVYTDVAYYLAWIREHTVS
Description: ELISA, binding of β2GPI to immobilized factor XII. Here is the method: as §2

Data set [6] has as its system anti-β2GPI auto-antibodies. In words: Interference with binding of anti-β2GPI autoantibodies to immobilized β2GPI. More on the design: species or system human. The conditions noted are these: antibodies from Anti-phospholipid syndrome patients. Here is the method: When plasma derived β2GPI is coated onto hydrophilic ELISA plates, anti-β2GPI auto-antibodies isolated from plasma of antiphospholipid syndrome auto-immune patients can bind^14. To study the influence of co-incubations of the coated β2GPI with the antibodies together with plasma β2GPI or recombinant β2GPI, concentration series of β2GPI were added to the patient antibodies. Subsequently, binding of the antibodies to coated β2GPI was determined.

A short description of data set [7]: ThT fluorescence of β2GPI with or without CL vesicles or DXS500k. The conditions noted are these: 25 μg ml^−1 β2GPI, 100 μM CL vesicles or 250 μg ml^−1 DXS. Format: physicochemical. On the procedure: ThT fluorescence of β2GPI was measured as follows. […] CL vesicles were prepared according to an established procedure. Briefly, CL was dried under a stream of nitrogen. The lipids were resuspended to a concentration of 10 mg ml^−1 in 25 mM Tris-HCl, pH 7.3, 150 mM NaCl by vigorous agitation, using a vortex. In the ThT fluorescence assay, fluorescence of β2GPI in buffer, of CL or DXS500k in buffer, of buffer and ThT alone, and of β2GPI-CL adducts and β2GPI-DXS500k adducts, with or without ThT, was recorded as described above (section ThT fluorescence). In addition, TEM images were recorded with CL, β2GPI from human plasma, with or without CL, and with recombinant β2GPI, as described^1.

T1 sequence (P00750 36-562): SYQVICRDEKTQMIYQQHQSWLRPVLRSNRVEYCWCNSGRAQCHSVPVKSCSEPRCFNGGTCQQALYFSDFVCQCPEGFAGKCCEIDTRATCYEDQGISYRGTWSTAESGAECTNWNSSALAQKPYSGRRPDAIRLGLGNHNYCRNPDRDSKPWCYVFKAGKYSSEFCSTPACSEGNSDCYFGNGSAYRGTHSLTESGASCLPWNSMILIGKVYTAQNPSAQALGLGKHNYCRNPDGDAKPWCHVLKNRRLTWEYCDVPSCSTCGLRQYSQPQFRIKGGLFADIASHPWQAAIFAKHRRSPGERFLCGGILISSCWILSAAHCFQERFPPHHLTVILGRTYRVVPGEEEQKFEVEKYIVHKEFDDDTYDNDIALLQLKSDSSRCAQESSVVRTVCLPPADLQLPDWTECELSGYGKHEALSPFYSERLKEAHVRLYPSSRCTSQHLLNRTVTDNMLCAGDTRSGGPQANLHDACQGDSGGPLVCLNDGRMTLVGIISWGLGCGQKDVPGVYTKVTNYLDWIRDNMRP

B1: plasma β2GPI: β2-glycoprotein I purified from fresh human plasma (protein)
chain: GRTCPKPDDLPFSTVVPLKTFYEPGEEITYSCKPGYVSRGGMRKFICPLTGLWPINTLKCTPRVCPFAGILENGAVRYTTFEYPNTISFSCNTGFYLNGADSAKCTEEGKWSPELPVCAPIICPPPSIPTFATLRVYKPSAGNNSLYRDTAVFECLPQHAMFGNDTITCTTHGNWTKLPECREVKCPFPSRPDNGFVNYPAKPTLYYKDKATFGCHDGYSLDGPEEIECTKLGNWSAMPSCKASCKVPVKKATVVYQGERVKIQEKFKNGMLHGDKVSFFCKNKEKKCSYTEDAQCIDGTIEVPKCFKEHSSLAFWKTDASDVKPC
With B1, in data set [1], the “stimulation of tPA-mediated conversion of Plg to Pls” value is listed as “not”. For the same molecule, the ThT fluorescence enhancement in data set [2] was ~2 times. The “increased ThT fluorescence” value in data set [3] is ~2 factor. Moreover, the “binding to tPA” value in data set [4] is “not bind”. The “binding to factor XII” value in data set [5] is given as “not bind”. Further, the “inhibition of binding of anti-β2GPI auto-antibodies to immobilized β2GPI” value in data set [6] was “minor effect on antibody binding”. In data set [7], the “ThT fluorescence after exposure to CL vesicles or DXS” value is “increased fluorescence of ThT”.
